According to the supplement of paper PMC9112550, “Optimization of the antimicrobial peptide Bac7 by deep mutational scanning” (BMC Biology, 2022):

tested on: Escherichia coli TOP10; assay: shrunken log2 fold change of peptide-encoding DNA abundance (4.5 h post-induction vs induction); higher = less antimicrobial activity (less host growth inhibition); conditions: time post-induction: 4.5 h; library: site-saturation at positions 5, 18, 19, 20
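Also: peptides expressed intracellularly from a pBAD plasmid library in pooled LB shake-flask culture, induced with 0.3% L-arabinose, DNA abundance read by NGS, three biological replicates, DESeq2 with apeglm shrinkage.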

Row | Sequence | shrunken log2 fold change
1 | RRIRRRPPRLPRPRPRPAYNPRP | -0.28
2 | RRIRRRPPRLPRPRPRPGGMPRP | 0.235
3 | RRIRCRPPRLPRPRPRPKFMPRP | -0.527
4 | RRIRNRPPRLPRPRPRPENDPRP | 0.0164
5 | RRIRYRPPRLPRPRPRPWCMPRP | -0.383
6 | RRIRLRPPRLPRPRPRPCVMPRP | 0.025
7 | RRIRDRPPRLPRPRPRPQISPRP | 0.141
8 | RRIRHRPPRLPRPRPRPSTRPRP | 0.0896
9 | RRIRHRPPRLPRPRPRPKMKPRP | -0.232
10 | RRIRNRPPRLPRPRPRPIACPRP | -0.00434
11 | RRIRLRPPRLPRPRPRPIGRPRP | 0.0169
12 | RRIRLRPPRLPRPRPRPSVQPRP | -0.57
13 | RRIRHRPPRLPRPRPRPGCDPRP | 0.123
14 | RRIRLRPPRLPRPRPRPYNVPRP | -0.119
15 | RRIRVRPPRLPRPRPRPCHCPRP | -0.373
16 | RRIRFRPPRLPRPRPRPACRPRP | 0.192
17 | RRIRARPPRLPRPRPRPNECPRP | -0.409
18 | RRIRMRPPRLPRPRPRPCEQPRP | 0.195
19 | RRIRARPPRLPRPRPRPTARPRP | 0.874
20 | RRIRTRPPRLPRPRPRPTPEPRP | 0.08
21 | RRIRVRPPRLPRPRPRPPMLPRP | -0.037
22 | RRIRGRPPRLPRPRPRPYQTPRP | 0.0825
23 | RRIRMRPPRLPRPRPRPTAQPRP | 0.819
24 | RRIRLRPPRLPRPRPRPDAAPRP | 2.66
25 | RRIRTRPPRLPRPRPRPWRLPRP | -0.127

Row | Sequence | shrunken log2 fold change
26 | RRIRHRPPRLPRPRPRPQKDPRP | 0.0122
27 | RRIRARPPRLPRPRPRPLSSPRP | 0.2
28 | RRIRCRPPRLPRPRPRPLSEPRP | -0.219
29 | RRIRKRPPRLPRPRPRPISLPRP | 0.00252
30 | RRIRYRPPRLPRPRPRPYQSPRP | 0.0169
31 | RRIRYRPPRLPRPRPRPFTVPRP | -0.177
32 | RRIRQRPPRLPRPRPRPVSAPRP | 0.104
33 | RRIRPRPPRLPRPRPRPMPFPRP | -0.349
34 | RRIRWRPPRLPRPRPRPNEGPRP | -0.0387
35 | RRIRTRPPRLPRPRPRPLPIPRP | -0.0647
36 | RRIRPRPPRLPRPRPRPREHPRP | 0.121
37 | RRIRDRPPRLPRPRPRPCYAPRP | 0.326
38 | RRIRLRPPRLPRPRPRPNQCPRP | -0.206
39 | RRIRTRPPRLPRPRPRPSGCPRP | -0.375
40 | RRIRLRPPRLPRPRPRPPIRPRP | 0.296
41 | RRIRIRPPRLPRPRPRPWQSPRP | -0.0531
42 | RRIRIRPPRLPRPRPRPNTGPRP | -0.663
43 | RRIRLRPPRLPRPRPRPRHAPRP | 0.537
44 | RRIRTRPPRLPRPRPRPHATPRP | -0.0102
45 | RRIRTRPPRLPRPRPRPLPHPRP | -0.00316
46 | RRIRMRPPRLPRPRPRPNFRPRP | 0.0542
47 | RRIRGRPPRLPRPRPRPVPSPRP | 0.201
48 | RRIRFRPPRLPRPRPRPARPPRP | 0.287
49 | RRIRFRPPRLPRPRPRPNEGPRP | -0.0411
50 | RRIRHRPPRLPRPRPRPEGKPRP | 0.082

Row | Sequence | shrunken log2 fold change
51 | RRIRYRPPRLPRPRPRPTKQPRP | 0.0156
52 | RRIRSRPPRLPRPRPRPRKYPRP | -0.312
53 | RRIRQRPPRLPRPRPRPPPIPRP | 0.467
54 | RRIRYRPPRLPRPRPRPFESPRP | -0.0101
55 | RRIRVRPPRLPRPRPRPCTQPRP | -0.322
56 | RRIRDRPPRLPRPRPRPKRDPRP | 0.145
57 | RRIRRRPPRLPRPRPRPNIMPRP | -0.359
58 | RRIRGRPPRLPRPRPRPLAHPRP | 0.546
59 | RRIRWRPPRLPRPRPRPYVNPRP | -0.355
60 | RRIRNRPPRLPRPRPRPNCFPRP | 0.0424
61 | RRIRGRPPRLPRPRPRPLRTPRP | 1.69
62 | RRIRVRPPRLPRPRPRPYQDPRP | -1.42
63 | RRIRDRPPRLPRPRPRPYMIPRP | -0.587
64 | RRIRERPPRLPRPRPRPGTYPRP | -0.478
65 | RRIRCRPPRLPRPRPRPRFNPRP | -0.288
66 | RRIRHRPPRLPRPRPRPYNWPRP | -0.928
67 | RRIRNRPPRLPRPRPRPCSYPRP | -0.212
68 | RRIRPRPPRLPRPRPRPPHRPRP | 0.401
69 | RRIRTRPPRLPRPRPRPWLAPRP | 0.216
70 | RRIRRRPPRLPRPRPRPFEFPRP | 0.117
71 | RRIRIRPPRLPRPRPRPFEEPRP | -0.569
72 | RRIRMRPPRLPRPRPRPVYKPRP | -0.014
73 | RRIRVRPPRLPRPRPRPGPQPRP | 0.245
74 | RRIRTRPPRLPRPRPRPFRWPRP | 0.24
75 | RRIRHRPPRLPRPRPRPPADPRP | 0.492
